1 substance from US20180030149A1 can be followed below.

pKd: −log10 of the molar value.

The test deals with recombinant human ErbB3 monomeric protein (cleaved rhErbB3) (human) (UniProt P21860). The test can be described thus: SPR Biacore 37 C; antibody captured on anti-human Fc, cleaved rhErbB3 (monomer) injected. In general terms: In SPR one partner is held on a chip, and binding of the other changes the refractive index at the surface.

One may read the pKd as the negative decadic logarithm of the Kd, by convention in mol/L. Consider U1-59 (antibody), for which the pKd was 9.28.
